# Laboratory results: paper PMC5758712
# Target: UbcH5B (Homo sapiens) (UniProt P62837)
# Experiment: not given
# Details: cited from earlier work
# Chain of RNF144A-RBR (P50876 1-250): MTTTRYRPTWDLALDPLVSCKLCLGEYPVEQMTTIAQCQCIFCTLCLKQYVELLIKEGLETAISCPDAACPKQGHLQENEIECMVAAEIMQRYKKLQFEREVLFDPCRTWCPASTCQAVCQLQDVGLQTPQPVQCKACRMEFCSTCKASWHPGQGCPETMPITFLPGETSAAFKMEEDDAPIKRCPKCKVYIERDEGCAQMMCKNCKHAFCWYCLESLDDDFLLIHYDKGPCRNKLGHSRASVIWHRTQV
# Chain of HOIP-Ring1 (Q96EP0 whole entry, the tested form may be a part): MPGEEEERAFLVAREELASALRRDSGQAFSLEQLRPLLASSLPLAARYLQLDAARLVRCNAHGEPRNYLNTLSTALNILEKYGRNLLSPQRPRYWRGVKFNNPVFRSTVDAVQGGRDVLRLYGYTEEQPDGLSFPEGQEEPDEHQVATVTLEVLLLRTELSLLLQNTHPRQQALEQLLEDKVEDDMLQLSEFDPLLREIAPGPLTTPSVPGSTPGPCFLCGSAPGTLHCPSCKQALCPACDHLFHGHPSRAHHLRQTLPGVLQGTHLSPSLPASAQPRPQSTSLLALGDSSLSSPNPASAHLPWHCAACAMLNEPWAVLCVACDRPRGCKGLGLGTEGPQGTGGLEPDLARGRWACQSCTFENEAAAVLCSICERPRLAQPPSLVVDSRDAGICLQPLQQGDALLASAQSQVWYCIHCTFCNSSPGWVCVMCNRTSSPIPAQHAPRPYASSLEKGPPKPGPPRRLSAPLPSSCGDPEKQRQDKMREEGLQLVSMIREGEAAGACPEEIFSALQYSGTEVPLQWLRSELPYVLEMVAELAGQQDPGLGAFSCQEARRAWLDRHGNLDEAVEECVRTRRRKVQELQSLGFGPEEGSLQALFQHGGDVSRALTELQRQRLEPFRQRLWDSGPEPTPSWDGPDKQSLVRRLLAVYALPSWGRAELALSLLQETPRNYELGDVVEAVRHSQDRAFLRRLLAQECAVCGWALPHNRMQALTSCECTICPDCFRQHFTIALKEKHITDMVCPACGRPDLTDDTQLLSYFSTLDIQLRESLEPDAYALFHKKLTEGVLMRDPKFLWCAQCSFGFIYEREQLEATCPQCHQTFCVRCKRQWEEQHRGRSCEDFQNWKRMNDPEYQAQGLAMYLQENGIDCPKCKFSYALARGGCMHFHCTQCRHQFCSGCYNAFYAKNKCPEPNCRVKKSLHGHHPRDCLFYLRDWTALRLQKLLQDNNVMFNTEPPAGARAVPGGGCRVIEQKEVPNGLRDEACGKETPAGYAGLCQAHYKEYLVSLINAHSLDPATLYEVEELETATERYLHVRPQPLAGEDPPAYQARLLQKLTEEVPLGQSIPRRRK
# Chain of HOIP-RBR (Q96EP0 whole entry, the tested form may be a part): as above
# Chain of RNF144A-Ring1 (P50876 whole entry, the tested form may be a part): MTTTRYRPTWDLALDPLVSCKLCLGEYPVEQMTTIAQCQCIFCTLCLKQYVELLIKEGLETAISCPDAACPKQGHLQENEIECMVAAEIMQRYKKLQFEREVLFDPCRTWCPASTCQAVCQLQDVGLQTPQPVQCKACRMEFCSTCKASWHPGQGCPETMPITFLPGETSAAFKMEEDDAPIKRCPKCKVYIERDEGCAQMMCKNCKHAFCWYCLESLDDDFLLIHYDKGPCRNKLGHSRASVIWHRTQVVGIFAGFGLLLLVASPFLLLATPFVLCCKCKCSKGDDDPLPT
# Chain of HHARI-RBR (Q9Y4X5 whole entry, the tested form may be a part): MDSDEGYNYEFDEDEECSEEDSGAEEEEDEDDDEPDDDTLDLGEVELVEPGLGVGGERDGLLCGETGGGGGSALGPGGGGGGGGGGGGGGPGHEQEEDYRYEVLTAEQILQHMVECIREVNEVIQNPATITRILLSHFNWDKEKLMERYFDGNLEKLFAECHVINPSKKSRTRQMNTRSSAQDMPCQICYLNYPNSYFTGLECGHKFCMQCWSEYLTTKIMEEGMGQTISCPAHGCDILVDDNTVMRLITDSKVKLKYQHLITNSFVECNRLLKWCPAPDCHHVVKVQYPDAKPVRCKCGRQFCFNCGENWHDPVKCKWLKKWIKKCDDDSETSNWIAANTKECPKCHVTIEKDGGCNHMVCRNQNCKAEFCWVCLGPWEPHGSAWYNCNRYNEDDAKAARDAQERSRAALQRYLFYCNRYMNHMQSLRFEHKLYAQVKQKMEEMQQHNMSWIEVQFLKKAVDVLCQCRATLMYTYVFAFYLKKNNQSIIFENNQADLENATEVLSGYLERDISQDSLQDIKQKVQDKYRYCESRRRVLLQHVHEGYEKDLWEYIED
# Chain of HHARI-Ring1 (Q9Y4X5 whole entry, the tested form may be a part): as above
# Chain of UbcH5B (Homo sapiens) (P62837 whole entry): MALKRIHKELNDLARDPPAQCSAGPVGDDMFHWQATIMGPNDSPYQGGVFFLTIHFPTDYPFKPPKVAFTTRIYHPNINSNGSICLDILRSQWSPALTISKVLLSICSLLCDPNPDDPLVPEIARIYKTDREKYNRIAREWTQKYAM
# Chain of HHARI (Q9Y4X5 whole entry): as the sequence (Q9Y4X5 whole entry, the tested form may be a part) above
row,Substance,Kd
1,HHARI (from UniProt Q9Y4X5),20000 nM

# Target: UbcH5A-Ub (UniProt P51668)
# Experiment: ITC; E2 or E2~Ub in the cell at 25–30 μM, RBR in the syringe at 250–300 μM; 293 K; 25 mM Hepes pH 7.5, 150 mM NaCl, 0.5 mM TCEP; 1:1 binding model
# Details: not given
Substance,Kd,dH,stoichiometry N
HOIP-Ring1 (from UniProt Q96EP0 1-1072) (domain or fragment),> 50000 nM,,
TRIAD3A-Ring1 (from UniProt Q9NWF9-2 1-866) (domain or fragment),> 50000 nM,,

# The remaining lines, values ahead:
Kd,dH,stoichiometry N,Substance
4500 nM,-3.7 kcal/mol,0.8,HHARI-RBR (from UniProt Q9Y4X5 1-557) (domain or fragment)
> 50000 nM,,,HHARI-Ring1 (from UniProt Q9Y4X5 1-557) (domain or fragment)
4300 nM,-8.2 kcal/mol,0.9,HOIP-RBR (from UniProt Q96EP0 1-1072) (domain or fragment)
> 50000 nM,,,RNF144A-Ring1 (from UniProt P50876 1-292) (domain or fragment)

# Target: UbcH7-Ub (UniProt P68036)
# Experiment: as above
# Details: not given
Substance,Kd,dH,stoichiometry N
HOIP-Ring1 (from UniProt Q96EP0 1-1072) (domain or fragment),4300 nM,1.1 kcal/mol,0.9
TRIAD3A-RBR (from UniProt Q9NWF9-2 510-801) (domain or fragment),2400 nM,3.7 kcal/mol,0.9
TRIAD3A-Ring1 (from UniProt Q9NWF9-2 1-866) (domain or fragment),4300 nM,3.6 kcal/mol,0.8

# The remaining lines, values ahead:
Kd,dH,stoichiometry N,Substance
200 nM,-2.3 kcal/mol,0.9,HHARI-RBR (from UniProt Q9Y4X5 1-557) (domain or fragment)
120 nM,3.9 kcal/mol,0.8,HHARI-Ring1 (from UniProt Q9Y4X5 1-557) (domain or fragment)
900 nM,0.8 kcal/mol,0.9,HOIP-RBR (from UniProt Q96EP0 1-1072) (domain or fragment)
520 nM,-0.9 kcal/mol,0.8,RNF144A-RBR (from UniProt P50876 1-250) (domain or fragment)
1000 nM,2.7 kcal/mol,0.8,RNF144A-Ring1 (from UniProt P50876 1-292) (domain or fragment)

# Target: UbcH7 (UniProt P68036)
# Experiment: as above
# Details: not given
Substance,Kd,dH,stoichiometry N
HOIP-Ring1 (from UniProt Q96EP0 1-1072) (domain or fragment),,1.4 kcal/mol,1
TRIAD3A-Ring1 (from UniProt Q9NWF9-2 1-866) (domain or fragment),3200 nM,4.5 kcal/mol,0.8

# Now from value to substance:
Kd,dH,stoichiometry N,Substance
410 nM,1.8 kcal/mol,0.9,HHARI-RBR (from UniProt Q9Y4X5 1-557) (domain or fragment)
210 nM,4.2 kcal/mol,0.8,HHARI-Ring1 (from UniProt Q9Y4X5 1-557) (domain or fragment)
2300 nM,0.8 kcal/mol,0.8,HOIP-RBR (from UniProt Q96EP0 1-1072) (domain or fragment)
1000 nM,1.7 kcal/mol,0.9,RNF144A-RBR (from UniProt P50876 1-250) (domain or fragment)
2200 nM,3.5 kcal/mol,0.8,RNF144A-Ring1 (from UniProt P50876 1-292) (domain or fragment)
